These results are taken from US20250223319A1.

For the experiment, the target named is F HIV-clamp (respiratory syncytial virus). Put plainly: capture ELISA, 101F coat and MPE8 detection; antigen yield estimate, control.

As to MPE8 (antibody), the yield by MPE8 binding ELISA is 10 mg/L.
